# Experimental data from patent publication US8889130B2, “Treatment of osteoarthritis and pain” (Abbvie Inc., priority 2011, dated 2014).
# B1: DVD1-Ig: DVD-Ig binding hIL-1α and hIL-1β; VH/VL of 13F5.G5 fused directly to N-terminus of 3D12.E3 VH/VL, no linker (antibody)
# VH: MQLSGLTSEDSAMYFCVRFPTGNDYYAMDYWGQGTSVTVSSQIQLVQSGPELKKPGETVKISCKASGYTFRNYGMNWVKQAPGKDLKRMAWINTYTGESTYADDFKGRFAFSLETSASTAYLQINNLKNEDTATYFCARGIYYYGSSYAMDYWGQGTSVTVSS
# VL: PVEADDAATYYCQQNNEDPFTFGSGTKLEIKRNIQMTQTTSSLSASLGDRVTISCRASQDISNCLNWYQQKPDGTVKLLIYYTSRLHSGVPSRFSGSGSGTDYSLTISNLEQEDIATYFCQQGKTLPYAFGGGTKLEINRR
# B2: DVD2-Ig: DVD-Ig as DVD1-Ig but with linkers ADAAP (light chain) and AKTTPP (heavy chain) (antibody)
# VH: MQLSGLTSEDSAMYFCVRFPTGNDYYAMDYWGQGTSVTVSSAKTTPPQIQLVQSGPELKKPGETVKISCKASGYTFRNYGMNWVKQAPGKDLKRMAWINTYTGESTYADDFKGRFAFSLETSASTAYLQINNLKNEDTATYFCARGIYYYGSSYAMDYWGQGTSVTVSS
# VL: PVEADDAATYYCQQNNEDPFTFGSGTKLEIKRADAAPNIQMTQTTSSLSASLGDRVTISCRASQDISNCLNWYQQKPDGTVKLLIYYTSRLHSGVPSRFSGSGSGTDYSLTISNLEQEDIATYFCQQGKTLPYAFGGGTKLEINR
# Columns and labels:
# hIL-1β [1] = target: T1, hIL-1β (Homo sapiens, UniProt P01584); experiment: Tetravalent dual-specific antigen binding by Biacore (sequential antigen injection), hIL-1β; conditions: for Response Unit, 1st antigen hIL-1β: hIL-1β injected as 1st antigen on captured DVD-Ig; for Response Unit, 2nd antigen hIL-1β: hIL-1β injected as 2nd antigen after hIL-1α
# Protocol: (§1) The kinetics of DVD-Ig molecules binding to rhIL1-α and rhIL1-β was determined by surface plasmon resonance-based measurements with a Biacore 3000 instrument (Biacore AB, Uppsala, Sweden) using HBS-EP (10 mM HEPES, pH 7.4, 150 mM NaCl, 3 mM EDTA, and 0.005% surfactant P20) at 25° C. All chemicals were obtained from Biacore AB (Uppsala, Sweden) or otherwise from a different source as described herein. Approximately, 5000 RU of goat anti-human IgG Fcγ fragment specific polyclonal antibody (Pierce Biotechnology Inc, Rockford, Ill.) diluted in 10 mM sodium acetate (pH 4.5) was directly immobilized across a CM5 research grade biosensor chip using a standard amine coupling kit according to manufacturer's instructions and procedures at […]. Unreacted moieties on the biosensor surface were blocked with ethanolamine. Modified carboxymethyl dextran surface in flowcell 2 and 4 was used as a reaction surface. Unmodified carboxymethyl dextran without goat anti-human IgG in flow cell 1 and 3 was used as the reference surface. For kinetic analysis, rate equations derived from the 1:1 Langmuir binding model were fitted simultaneously to association and dissociation phases of all ten injections (using global fit analysis) using the Bioevaluation 4.0.1 software. Purified DVD-Ig samples were diluted in HEPES-buffered saline for capture across goat anti-human IgG Fc specific reaction surfaces and injected over reaction matrices at a flow rate of […]. The association and dissociation rate constants, kon (M-1s-1) and koff (s-1) were determined under a continuous flow rate of […]. Rate constants were derived by making kinetic binding measurements at ten different antigen concentrations ranging from 1.25 to 1000 nM. The equilibrium dissociation constant (M) of the reaction between DVD-Ig molecule and rhIL1α/β was then calculated from the kinetic rate constants by the following formula: KD=koff/kon. Aliquots of rhIL1α/β samples were also simultaneously injected over a blank reference and reaction CM surface to record and subtract any nonspecific binding background to eliminate the majority of the refractive index change and injection noise. Surfaces were regenerated with two subsequent […] injections of 10 mM Glycine (pH 1.5) at a flow rate of […]. The anti-Fc antibody immobilized surfaces were completely regenerated and retained their full capture capacity over twelve cycles. The apparent stoichiometry of the captured DVD-Ig-rhIL1α/β complex was calculated under saturating binding conditions (steady-state equilibrium) using the following formula: […]
# (§2) In addition, tetravalent dual-specific antigen binding of DVD-Ig binding protein was also analyzed by Biacore (Table 14). DVD-Ig binding protein was first captured via a goat anti-human Fc antibody on the Biacore sensor chip, and the first antigen was injected and a binding signal observed. As the DVD-Ig binding protein was saturated by the first antigen, the second antigen was then injected and the second signal observed. This was done either by first injecting IL-1β then IL-1α or by first injecting IL-1α followed by IL-1β for DVD2-Ig binding protein. In either sequence, a dual-binding activity was detected. Similar results were obtained for DVD1-Ig binding protein. Thus, each DVD-Ig binding protein was able to bind both antigens simultaneously as a dual-specific tetravalent molecule. […] Upon the injection of the second antigen, while DVD-Ig binding protein was already occupied by the first antigen, the stoichiometry of both DVD-Igs binding protein to the second antigen (i.e., hIL-1α or hIL-1β was between 1.0 and 1.3. Thus, DVD-Ig binding protein was able to bind two IL-1α and two IL-β molecules. DVD-Ig binding protein was first captured via a goat anti-human Fc antibody on the Biacore sensor chip, and the first antigen was injected and a binding signal observed, followed by the injection of the second antigen.
# hIL-1β [2] = target: T1, hIL-1β; experiment: Surface plasmon resonance (Biacore) binding kinetics and affinity to hIL-1β; conditions: for koff / kon / Kd / Stoichiometry: antigen hIL-1β; for Kd: KD=koff/kon; for Stoichiometry: saturating binding conditions
# Protocol: as §1
# hIL-1α [3] = target: T2, hIL-1α (Homo sapiens, UniProt P01583); experiment: Tetravalent dual-specific antigen binding by Biacore (sequential antigen injection), hIL-1α; conditions: for Response Unit, 1st antigen hIL-1α: hIL-1α injected as 1st antigen on captured DVD-Ig; for Response Unit, 2nd antigen hIL-1α: hIL-1α injected as 2nd antigen after hIL-1β
# T2 sequence (P01583 113-271): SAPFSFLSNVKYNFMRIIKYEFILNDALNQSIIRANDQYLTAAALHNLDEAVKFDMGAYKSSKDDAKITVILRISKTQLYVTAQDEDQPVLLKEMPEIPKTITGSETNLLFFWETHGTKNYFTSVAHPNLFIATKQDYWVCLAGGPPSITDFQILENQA
# Protocol: as §1, §2
# hIL-1α [4] = target: T2, hIL-1α; experiment: MRC-5 bioassay: neutralization of hIL-1α-induced IL-8 production; assay type: cell-based; conditions: for IC50: antigen hIL-1α, read-out: Potency IC50
# Protocol: (§3) The MRC-5 cell line is a human lung fibroblast cell line that produces IL-8 in response to human IL-1α and IL-1β in a dose-dependent manner (see, Dinarello, Muegge, and Durum (2000) Curr. Protocols Immunol. 6:1). MRC-5 cells were cultured in 10% FBS complete MEM and grown at 37° C. in a 5% CO2 incubator. […] The supernatants were harvested, diluted, and IL-8 concentrations measured by ELISA using a standard IL-8 ELISA kit (R&D Systems). Antibody potency was determined by its ability to inhibit IL-8 production by MRC-5 cells.
# (§4) The biological activity of DVD-Ig was measured using MRC-5 bioassay. The MRC-5 cell line is a human lung fibroblast cell line that produces IL-8 in response to human IL-1α and IL-1β in a dose-dependent manner. MRC-5 cells were obtained from ATCC and cultured in 10% FBS complete MEM at 37° C. in a 5% CO2 incubator. To determine neutralizing activity of the DVD-Ig against human IL-1α or IL-1β, 50 μl of antibody (1×10^−7 to 1×10^−12 M) in MEM/10% FBS was added to a 96 well plate and pre-incubated with 50 μl of hIL-1α or hIL-1β (200 pg/ml) for 1 hour at 37° C., 5% CO2. MRC-5 cells at a concentration of 1×10^5/ml were then added (100 μl) to all wells, and the plates were incubated overnight at 37° C. in a 5% CO2 incubator. The supernatants were harvested and human IL-8 production measured by standard ELISA (R&D Systems, Minneapolis, Minn.). Neutralizing activity of the DVD-Ig binding protein was determined by its ability to inhibit IL-8 production.
# hIL-1β [5] = target: T1, hIL-1β; experiment: MRC-5 bioassay: neutralization of hIL-1β-induced IL-8 production; assay type: cell-based
# Protocol: as §3
# as §4, with “MRC-5 cells at a concentration of 1×10^5/ml were then added (100 μl) to all wells, and the plates were incubated overnight at 37° C. in a 5% CO2 incubator.” left out
# [6] = hIL-1β injected as 2nd antigen, DVD-Ig already saturated with hIL-1α
# [7] = hIL-1α injected as 2nd antigen, DVD-Ig already saturated with hIL-1β
# T1 sequence (P01584 117-269): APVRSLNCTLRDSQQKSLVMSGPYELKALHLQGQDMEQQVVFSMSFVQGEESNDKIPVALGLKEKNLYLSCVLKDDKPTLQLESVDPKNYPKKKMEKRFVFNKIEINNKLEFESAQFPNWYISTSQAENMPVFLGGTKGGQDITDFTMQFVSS
molecule,measurement,setting,value
B1,Stoichiometry hIL-1β:DVD-Ig,hIL-1β [1]; hIL-1β injected as 1st antigen,1.5
same,"Response Unit, 1st antigen hIL-1β",hIL-1β [1],141 Response Unit
same,"Response Unit, 2nd antigen hIL-1β",hIL-1β [1],hIL-1β: 75 Response Unit
same,Stoichiometry hIL-1β:DVD-Ig,hIL-1β [1]; [6],1.0
same,koff,hIL-1β [2],0.00159 s⁻¹
same,kon,hIL-1β [2],609000 M⁻¹ s⁻¹
same,Kd,hIL-1β [2],2.6 nM
same,Stoichiometry,hIL-1β [2],1.5
same,Stoichiometry hIL-1α:DVD-Ig,hIL-1α [3]; hIL-1α injected as 1st antigen,2.3
same,"Response Unit, 1st antigen hIL-1α",hIL-1α [3],190 Response Unit
same,"Response Unit, 2nd antigen hIL-1α",hIL-1α [3],hIL-1α: 107 Response Unit
same,Stoichiometry hIL-1α:DVD-Ig,hIL-1α [3]; [7],1.1
same,"neutralizing activity against hIL-1α, fold less than that of the chimeric antibodies",hIL-1α [4],3 fold
same,IC50,hIL-1α [4],2.3 nM
same,IC50,"hIL-1β [5]; antigen hIL-1β, read-out: Potency IC50",3.1 nM
B2,"Response Unit, 1st antigen hIL-1β",hIL-1β [1],159 Response Unit
same,"Response Unit, 2nd antigen hIL-1β",hIL-1β [1],hIL-1β: 137 Response Unit
same,Stoichiometry hIL-1β:DVD-Ig,hIL-1β [1]; [6],1.3
same,"binding affinity to hIL-1β, fold higher than that of DVD1-Ig",hIL-1β [2],3 fold
same,koff,hIL-1β [2],0.00095 s⁻¹
same,kon,hIL-1β [2],1.19e+06 M⁻¹ s⁻¹
same,Kd,hIL-1β [2],0.798 nM
same,Stoichiometry,hIL-1β [2],1.8
same,Stoichiometry hIL-1α:DVD-Ig,hIL-1α [3]; hIL-1α injected as 1st antigen,1.8
same,"Response Unit, 1st antigen hIL-1α",hIL-1α [3],209 Response Unit
same,"Response Unit, 2nd antigen hIL-1α",hIL-1α [3],hIL-1α: 131 Response Unit
same,Stoichiometry hIL-1α:DVD-Ig,hIL-1α [3]; [7],1.2
same,"neutralizing activity against hIL-1α, fold less than that of the chimeric antibodies",hIL-1α [4],3 fold
same,IC50,hIL-1α [4],2.9 nM
same,"neutralizing activity to hIL-1β, fold higher than that of DVD1-Ig",hIL-1β [5],3 fold
